Tests used:
[1] = system: human FSHR; experiment: ^125I-FSH binding to wild type and mutant FSH receptors on intact stably transfected HEK 293 cells; conditions: for FSH binding / Kd compared with the wild type receptor, in words: intact HEK 293 cells
Experimental: (§1) Mutant FSHR cDNAs were prepared in the pSELECT vector using the Altered Sites Mutagenesis system (Promega), sequenced on a Beckman CEQ 2000XL capillary sequencer, subcloned into pcDNA3 (Invitrogen), and sequenced again to verify mutation sequences. […] Wild type and mutant receptor constructs were transfected into HEK 293 cells by the calcium phosphate method as previously described. Stable cell lines were established in minimum essential medium containing 10% horse serum and 500 μg/ml of G418. These cells were used for hormone binding, cAMP production. All assays were carried out in duplicate and repeated 4-5 times, and means±S.D. were calculated.
(§2) The Kd values were determined by Scatchard plots. For intracellular cAMP assay, cells were washed twice with Dulbecco's modified Eagle's medium and incubated in the medium containing 0.1 μg/ml isobutylmethylxanthine for 15 mm. Increasing concentrations of FSH were then added and incubation was continued for 45 mm at 37° C. After removing the medium, the cells were rinsed once with fresh medium without isobutylmethylxanthine, lysed in 70% ethanol, freeze-thawed in liquid nitrogen, and scraped.
Each mutant human FSHR cDNA was prepared in a pSELECT vector using the non-PCR based Altered Sites Mutagenesis System (Promega), sequenced on a Beckman CEQ 2000XL capillary sequencer and subcloned into pcDNA3 (Invitrogen) as described. After subcloning pcDNA3 the mutant cDNAs were sequenced again. Plasmids were transfected into human embryonic kidney (HEK) 293 cells by the calcium phosphate method. Stable cell lines were established in minimum essential medium containing 10% horse serum and 500 μg/ml of G-418, and then used for hormone binding and cAMP assay. All assays were carried out in duplicate and repeated 4-6 times. Means and standard variations were calculated.
(§3) Human FSH (the National Hormone and Pituitary Program) was radioiodinated as previously described for radioiodination of hCG. […] The Kd values were determined by Scatchard plots. Truncated exodomain was solubilized in Nonidet P-40 and assayed for hormone binding as described previously. For intracellular cAMP assay, cells were washed twice with Dulbecco's modified Eagle's media and incubated in the media containing isobutylmethylxanthine (0.1 mg/ml) for 15 minutes. Increasing concentrations of FSH were then added and the incubation was continued for 45 minutes at 37° C. After removing the media, the cells were rinsed once with fresh media without isobutylmethylxanthine, lysed in 70% ethanol, freeze-thawed in liquid nitrogen, and scraped. […] Exoloop 3 of FSHR was modeled based on the crystal structure of rhodopsin as a template.

[2] = system: human FSHR; experiment: FSH dependent intracellular cAMP assay, wild type and mutant FSHR in HEK 293 cells; assay type: cell-based; conditions: for FSH dependent cAMP induction / EC50 compared with the wild type receptor, in words: HEK 293 cells
Experimental: as §1, §2, §3

B1: del: human FSHR deletion mutant, L583 deleted (protein, UniProt P23945 18-695, looked up, variant L583*)
Follicle-stimulating hormone …: CHHRICHCSNRVFLCQESKVTEIPSDLPRNAIELRFVLTKLRVIQKGAFSGFGDLEKIEISQNDVLEVIEADVFSNLPKLHEIRIEKANNLLYINPEAFQNLPNLQYLLISNTGIKHLPDVHKIHSLQKVLLDIQDNINIHTIERNSFVGLSFESVILWLNKNGIQEIHNCAFNGTQLDELNLSDNNNLEELPNDVFHGASGPVILDISRTRIHSLPSYGLENLKKLRARSTYNLKKLPTLEKLVALMEASLTYPSHCCAFANWRRQISELHPICNKSILRQEVDYMTQARGQRSSLAEDNESSYSRGFDMTYTEFDYDLCNEVVDVTCSPKPDAFNPCEDIMGYNILRVLIWFISILAITGNIIVLVILTTSQYKLTVPRFLMCNLAFADLCIGIYLLLIASVDIHTKSQYHNYAIDWQTGAGCDAAGFFTVFASELSVYTLTAITLERWHTITHAMQLDCKVQLRHAASVMVMGWIFAFAAALFPIFGISSYMKVSICLPMDIDSPLSQLYVMSLLVLNVLAFVVICGCYIHIYLTVRNPNIVSSSSDTRIAKRMAMLIFTDFCMAPISFFAISASLKVPLITVSKAKILLVLFHPINSCANPFLYAIFTKNFRRDFFILLSKCGCYEMQAQIYRTETSSTVHNTHPRNGHCSSAPRVTSGSTYILVPLSHLAQN
With B1 the “improvement of hormone binding affinity (decrease of Kd) compared with wild type” value ([1]; FSH binding, mutant versus wild type FSHR) was “more than 4 fold”.

B2: R^11A: human FSHR with Ala substituted for R11 (protein)
chain: CHHRICHCSNAVFLCQESKVTEIPSDLPRNAIELRFVLTKLRVIQKGAFSGFGDLEKIEISQNDVLEVIEADVFSNLPKLHEIRIEKANNLLYINPEAFQNLPNLQYLLISNTGIKHLPDVHKIHSLQKVLLDIQDNINIHTIERNSFVGLSFESVILWLNKNGIQEIHNCAFNGTQLDELNLSDNNNLEELPNDVFHGASGPVILDISRTRIHSLPSYGLENLKKLRARSTYNLKKLPTLEKLVALMEASLTYPSHCCAFANWRRQISELHPICNKSILRQEVDYMTQARGQRSSLAEDNESSYSRGFDMTYTEFDYDLCNEVVDVTCSPKPDAFNPCEDIMGYNILRVLIWFISILAITGNIIVLVILTTSQYKLTVPRFLMCNLAFADLCIGIYLLLIASVDIHTKSQYHNYAIDWQTGAGCDAAGFFTVFASELSVYTLTAITLERWHTITHAMQLDCKVQLRHAASVMVMGWIFAFAAALFPIFGISSYMKVSICLPMDIDSPLSQLYVMSLLVLNVLAFVVICGCYIHIYLTVRNPNIVSSSSDTRIAKRMAMLIFTDFLCMAPISFFAISASLKVPLITVSKAKILLVLFHPINSCANPFLYAIFTKNFRRDFFILLSKCGCYEMQAQIYRTETSSTVHNTHPRNGHCSSAPRVTSGSTYILVPLSHLAQN
For B2, the “FSH binding / Kd compared with the wild type receptor, in words” value [1] was “improved hormone binding” and the “FSH binding / Kd compared with the wild type receptor, in words” value ([1]; listed as FSHR^R11A) was “lower than the wild type value”.

B3: S^9A: human FSHR with Ala substituted for S9 (protein)
chain: CHHRICHCANRVFLCQESKVTEIPSDLPRNAIELRFVLTKLRVIQKGAFSGFGDLEKIEISQNDVLEVIEADVFSNLPKLHEIRIEKANNLLYINPEAFQNLPNLQYLLISNTGIKHLPDVHKIHSLQKVLLDIQDNINIHTIERNSFVGLSFESVILWLNKNGIQEIHNCAFNGTQLDELNLSDNNNLEELPNDVFHGASGPVILDISRTRIHSLPSYGLENLKKLRARSTYNLKKLPTLEKLVALMEASLTYPSHCCAFANWRRQISELHPICNKSILRQEVDYMTQARGQRSSLAEDNESSYSRGFDMTYTEFDYDLCNEVVDVTCSPKPDAFNPCEDIMGYNILRVLIWFISILAITGNIIVLVILTTSQYKLTVPRFLMCNLAFADLCIGIYLLLIASVDIHTKSQYHNYAIDWQTGAGCDAAGFFTVFASELSVYTLTAITLERWHTITHAMQLDCKVQLRHAASVMVMGWIFAFAAALFPIFGISSYMKVSICLPMDIDSPLSQLYVMSLLVLNVLAFVVICGCYIHIYLTVRNPNIVSSSSDTRIAKRMAMLIFTDFLCMAPISFFAISASLKVPLITVSKAKILLVLFHPINSCANPFLYAIFTKNFRRDFFILLSKCGCYEMQAQIYRTETSSTVHNTHPRNGHCSSAPRVTSGSTYILVPLSHLAQN
With B3 the “FSH dependent cAMP induction / EC50 compared with the wild type receptor, in words” value [2] was “lower than the wild type value”.

B4: V^12A: human FSHR with Ala substituted for V12 (protein)
chain: CHHRICHCSNRAFLCQESKVTEIPSDLPRNAIELRFVLTKLRVIQKGAFSGFGDLEKIEISQNDVLEVIEADVFSNLPKLHEIRIEKANNLLYINPEAFQNLPNLQYLLISNTGIKHLPDVHKIHSLQKVLLDIQDNINIHTIERNSFVGLSFESVILWLNKNGIQEIHNCAFNGTQLDELNLSDNNNLEELPNDVFHGASGPVILDISRTRIHSLPSYGLENLKKLRARSTYNLKKLPTLEKLVALMEASLTYPSHCCAFANWRRQISELHPICNKSILRQEVDYMTQARGQRSSLAEDNESSYSRGFDMTYTEFDYDLCNEVVDVTCSPKPDAFNPCEDIMGYNILRVLIWFISILAITGNIIVLVILTTSQYKLTVPRFLMCNLAFADLCIGIYLLLIASVDIHTKSQYHNYAIDWQTGAGCDAAGFFTVFASELSVYTLTAITLERWHTITHAMQLDCKVQLRHAASVMVMGWIFAFAAALFPIFGISSYMKVSICLPMDIDSPLSQLYVMSLLVLNVLAFVVICGCYIHIYLTVRNPNIVSSSSDTRIAKRMAMLIFTDFLCMAPISFFAISASLKVPLITVSKAKILLVLFHPINSCANPFLYAIFTKNFRRDFFILLSKCGCYEMQAQIYRTETSSTVHNTHPRNGHCSSAPRVTSGSTYILVPLSHLAQN
In the case of B4, the “FSH dependent cAMP induction / EC50 compared with the wild type receptor, in words” value [2] is reported as “lower than the wild type value”.

B5: F^13A: human FSHR with Ala substituted for F13 (protein)
chain: CHHRICHCSNRVALCQESKVTEIPSDLPRNAIELRFVLTKLRVIQKGAFSGFGDLEKIEISQNDVLEVIEADVFSNLPKLHEIRIEKANNLLYINPEAFQNLPNLQYLLISNTGIKHLPDVHKIHSLQKVLLDIQDNINIHTIERNSFVGLSFESVILWLNKNGIQEIHNCAFNGTQLDELNLSDNNNLEELPNDVFHGASGPVILDISRTRIHSLPSYGLENLKKLRARSTYNLKKLPTLEKLVALMEASLTYPSHCCAFANWRRQISELHPICNKSILRQEVDYMTQARGQRSSLAEDNESSYSRGFDMTYTEFDYDLCNEVVDVTCSPKPDAFNPCEDIMGYNILRVLIWFISILAITGNIIVLVILTTSQYKLTVPRFLMCNLAFADLCIGIYLLLIASVDIHTKSQYHNYAIDWQTGAGCDAAGFFTVFASELSVYTLTAITLERWHTITHAMQLDCKVQLRHAASVMVMGWIFAFAAALFPIFGISSYMKVSICLPMDIDSPLSQLYVMSLLVLNVLAFVVICGCYIHIYLTVRNPNIVSSSSDTRIAKRMAMLIFTDFLCMAPISFFAISASLKVPLITVSKAKILLVLFHPINSCANPFLYAIFTKNFRRDFFILLSKCGCYEMQAQIYRTETSSTVHNTHPRNGHCSSAPRVTSGSTYILVPLSHLAQN
B5 was tested, and the “FSH dependent cAMP induction / EC50 compared with the wild type receptor, in words” value [2] was “lower than the wild type value”.

B6: I^23A: human FSHR with Ala substituted for I23 (protein)
chain: CHHRICHCSNRVFLCQESKVTEAPSDLPRNAIELRFVLTKLRVIQKGAFSGFGDLEKIEISQNDVLEVIEADVFSNLPKLHEIRIEKANNLLYINPEAFQNLPNLQYLLISNTGIKHLPDVHKIHSLQKVLLDIQDNINIHTIERNSFVGLSFESVILWLNKNGIQEIHNCAFNGTQLDELNLSDNNNLEELPNDVFHGASGPVILDISRTRIHSLPSYGLENLKKLRARSTYNLKKLPTLEKLVALMEASLTYPSHCCAFANWRRQISELHPICNKSILRQEVDYMTQARGQRSSLAEDNESSYSRGFDMTYTEFDYDLCNEVVDVTCSPKPDAFNPCEDIMGYNILRVLIWFISILAITGNIIVLVILTTSQYKLTVPRFLMCNLAFADLCIGIYLLLIASVDIHTKSQYHNYAIDWQTGAGCDAAGFFTVFASELSVYTLTAITLERWHTITHAMQLDCKVQLRHAASVMVMGWIFAFAAALFPIFGISSYMKVSICLPMDIDSPLSQLYVMSLLVLNVLAFVVICGCYIHIYLTVRNPNIVSSSSDTRIAKRMAMLIFTDFLCMAPISFFAISASLKVPLITVSKAKILLVLFHPINSCANPFLYAIFTKNFRRDFFILLSKCGCYEMQAQIYRTETSSTVHNTHPRNGHCSSAPRVTSGSTYILVPLSHLAQN
In the case of B6, the “EC50 value of cAMP induction, fold higher than wild type” value ([2]; FSH dependent cAMP) is reported as 23 fold and the “maximal cAMP level, fold lower than wild type” value ([2]; FSH dependent cAMP) is reported as 2.6 fold.
